Assay results as given in article PMC7139703, “Thiopurine Derivative-Induced Fpg/Nei DNA Glycosylase Inhibition: Structural, Dynamic and Functional Insights” (International Journal of Molecular Sciences, 2020).

Key:
Assay in all cases: EMSA
[1] = system: mvNei1 (mimivirus); conditions: N at position 7 of strand 1 = tetrahydrofuran (THF) abasic site analog, opposite C; EMSA: 0.1 nM probe, 25 mM HEPES/NaOH pH 7.5, 150 mM NaCl, 5% glycerol, 0.1 mg/mL BSA, 8% DMSO, 4 °C, 30 min; 10% native PAGE at 4 °C
[2] = target: ∆hNeil1 (truncated hNeil1) (human) (UniProt Q96FI4); conditions: 8% DMSO, no inhibitor, named hNeil1 in the sentence, N at position 7 of strand 1 = tetrahydrofuran (THF) abasic site analog, opposite C, EMSA: 0.1 nM probe, 25 mM HEPES/NaOH pH 7.5, 150 mM NaCl, 5% glycerol, 0.1 mg/mL BSA, 4 °C, 30 min, 10% native PAGE at 4 °C
[3] = target: T1, LlFpg (Lactococcus lactis) (UniProt P42371); conditions: 8% DMSO, no inhibitor, complex C1 (1:1), N at position 7 of strand 1 = tetrahydrofuran (THF) abasic site analog, opposite C, EMSA: 0.1 nM probe, 25 mM HEPES/NaOH pH 7.5, 150 mM NaCl, 5% glycerol, 0.1 mg/mL BSA, 4 °C, 30 min, 10% native PAGE at 4 °C
T1 sequence: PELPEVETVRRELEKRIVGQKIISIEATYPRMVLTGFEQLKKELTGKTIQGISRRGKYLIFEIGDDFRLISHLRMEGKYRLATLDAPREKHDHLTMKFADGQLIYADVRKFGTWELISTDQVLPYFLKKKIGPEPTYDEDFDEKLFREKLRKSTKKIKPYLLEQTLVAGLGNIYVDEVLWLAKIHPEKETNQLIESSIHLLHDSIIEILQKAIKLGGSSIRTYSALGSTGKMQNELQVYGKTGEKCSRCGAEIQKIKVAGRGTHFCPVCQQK

Sequence of ∆hNeil1 (truncated hNeil1) (human) (Q96FI4 whole entry, the tested form may be a part): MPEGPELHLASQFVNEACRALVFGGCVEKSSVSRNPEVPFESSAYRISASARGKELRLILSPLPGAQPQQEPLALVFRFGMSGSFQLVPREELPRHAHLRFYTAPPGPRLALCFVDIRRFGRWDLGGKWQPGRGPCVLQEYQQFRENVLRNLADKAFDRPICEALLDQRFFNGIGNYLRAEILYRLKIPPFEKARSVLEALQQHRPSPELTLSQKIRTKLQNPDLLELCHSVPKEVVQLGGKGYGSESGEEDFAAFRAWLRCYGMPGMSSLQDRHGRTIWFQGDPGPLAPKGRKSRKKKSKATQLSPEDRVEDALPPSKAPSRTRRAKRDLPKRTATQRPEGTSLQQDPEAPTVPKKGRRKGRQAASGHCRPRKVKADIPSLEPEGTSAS

“CTCTTTNTTTCTCG / GCGAGAAACAAAGA [14-mer THF:C]” showed a K half [1] of 5 nM, a K half [2] of 7 nM and a K half [3] of 0.25 nM.
